This test addresses T1, BSA (bovine, UniProt P02769 25-607).
T1 construct: Control analyte in the BiaCore experiment
Nature of the test: BiaCore CM5 chip, BMP3 pro-MuIgG2a amine coupled, BSA flowed over.

Here are results for 1 molecule from US20050272653A1 (ACCELERON PHARMA, published 2005).

T1 sequence (P02769 25-607 limits assumed): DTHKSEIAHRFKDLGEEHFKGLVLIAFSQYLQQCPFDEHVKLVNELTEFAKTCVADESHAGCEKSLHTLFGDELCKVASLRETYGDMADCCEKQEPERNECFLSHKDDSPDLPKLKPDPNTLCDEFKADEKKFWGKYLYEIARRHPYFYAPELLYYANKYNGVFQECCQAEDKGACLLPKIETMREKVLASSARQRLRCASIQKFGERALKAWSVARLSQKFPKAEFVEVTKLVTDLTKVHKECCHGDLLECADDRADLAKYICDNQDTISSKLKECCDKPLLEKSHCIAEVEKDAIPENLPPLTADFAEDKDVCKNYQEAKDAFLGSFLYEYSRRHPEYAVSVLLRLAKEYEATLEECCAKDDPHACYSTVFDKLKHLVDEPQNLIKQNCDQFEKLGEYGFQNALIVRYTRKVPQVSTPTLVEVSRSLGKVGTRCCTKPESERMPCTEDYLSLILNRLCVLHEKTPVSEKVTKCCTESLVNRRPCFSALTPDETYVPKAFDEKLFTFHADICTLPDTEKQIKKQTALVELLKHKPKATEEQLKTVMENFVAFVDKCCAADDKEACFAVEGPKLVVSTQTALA

B1: BMP3A propeptide-Murine IgG2a peptide Fc fusion protein (Fc fusion)
chain: ERPKPPFPELRKAVPGDRTAGGGPDSELQPQDKVSEHMLRLYDRYSTVQAARTPGSLEGGSQPWRPRLLREGNTVRSFRAAAAETLERKGLYIFNLTSLTKSENILSATLYFCIGELGNISLSCPVSGGCSHHAQRKHIQIDLSAWTLKFSRNQSQLLGHLSVDMAKSHRDIMSWLSKDITQFLRKAKENEEFLIGFNITSKGRQLPKRRLPFPEPYILVYANDAAISEPESVVSSLQGHRNFPTGTVPKWDSHIRAALSIERRKKRSTGVLLPLQNNELPGAEYQYKKDEVWEERKPYKTLQAQAPEKSKNKKKQRKGPHRKSQTLQFDEQTLKKARRK
notes: Expressed in HEK293 cells and purified on Protein A; highly glycosylated; also called BMP3 pro-MuIgG2a; BMP3 pro-MuIg2a; not shown: murine IgG2a Fc
For B1, the binding result is listed as “no binding”.
